In paper PMC10328973 (Nature Communications, 2023):

T1: AMS2b E2E1-I53-50A trimer (Hepatitis C virus genotype 2b, strain …, stabilised)
T1 construct: also called AMS2b E2E1 trimer; source: HEK293F, co-transfected with furin, purified (Strep-TactinXT, SEC); copies: 3 + 3
T1 chain 1: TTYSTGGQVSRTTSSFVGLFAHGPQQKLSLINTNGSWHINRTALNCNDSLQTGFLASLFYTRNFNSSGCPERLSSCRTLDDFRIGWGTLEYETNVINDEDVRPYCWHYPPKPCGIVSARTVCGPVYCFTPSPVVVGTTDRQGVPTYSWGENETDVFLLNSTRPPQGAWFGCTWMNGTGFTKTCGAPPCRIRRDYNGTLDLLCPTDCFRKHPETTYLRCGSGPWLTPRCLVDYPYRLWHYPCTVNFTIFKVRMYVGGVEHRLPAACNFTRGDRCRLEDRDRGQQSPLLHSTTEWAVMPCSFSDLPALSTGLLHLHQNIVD
T1 chain 2: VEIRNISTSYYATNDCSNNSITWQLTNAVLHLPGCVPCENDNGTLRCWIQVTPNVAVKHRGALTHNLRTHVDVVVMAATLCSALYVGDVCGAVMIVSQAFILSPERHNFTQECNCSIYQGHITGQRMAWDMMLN

T2: AMS3a E2E1-I53-50A trimer (Hepatitis C virus genotype 3a, strain …, stabilised)
T2 construct: also called AMS3a E2E1 trimer; source: HEK293F, co-transfected with furin, purified (Strep-TactinXT, SEC); copies: 3 + 3
T2 chain 1: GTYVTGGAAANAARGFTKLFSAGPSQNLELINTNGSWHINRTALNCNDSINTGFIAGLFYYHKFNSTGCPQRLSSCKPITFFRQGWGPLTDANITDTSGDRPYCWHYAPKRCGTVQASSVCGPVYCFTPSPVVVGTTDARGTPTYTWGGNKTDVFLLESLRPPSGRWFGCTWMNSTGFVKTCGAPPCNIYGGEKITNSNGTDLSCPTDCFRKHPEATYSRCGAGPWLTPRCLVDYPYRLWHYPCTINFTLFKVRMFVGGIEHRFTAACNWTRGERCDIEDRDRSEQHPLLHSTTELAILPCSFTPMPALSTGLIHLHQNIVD
T2 chain 2: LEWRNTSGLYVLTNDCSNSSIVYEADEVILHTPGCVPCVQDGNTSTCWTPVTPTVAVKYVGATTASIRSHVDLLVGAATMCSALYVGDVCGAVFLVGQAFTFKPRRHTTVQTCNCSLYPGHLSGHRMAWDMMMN


Legend:
[1] = biological target: T3, H77 E2E1-I53-50A trimer (Hepatitis C virus genotype 1a, strain …, UniProt P27958, stabilised); test: ELISA; details: both partners purified
T3 construct: source: HEK293F, co-transfected with furin, purified (Strep-TactinXT, SEC); copies: 3 + 3

[2] = biological target: T4, AMS2b E2E1-I53-50A trimer (Hepatitis C virus genotype 2b, strain …, stabilised); test: ELISA; details: both partners purified
T4 construct: also called AMS2b E2E1 trimer; source: HEK293F, co-transfected with furin, purified (Strep-TactinXT, SEC); copies: 3 + 3

[3] = biological target: T5, AMS3a E2E1-I53-50A trimer (Hepatitis C virus genotype 3a, strain …, stabilised); test: ELISA; details: both partners purified
T5 construct: also called AMS3a E2E1 trimer; source: HEK293F, co-transfected with furin, purified (Strep-TactinXT, SEC); copies: 3 + 3

[4] = biological target: T6, UKNP4.1.1 E2E1-I53-50A trimer (Hepatitis C virus genotype 4a, strain …, UniProt A0A0U3JDN1, stabilised); test: ELISA; details: both partners purified
T6 construct: also called UKNP4.1.1 E2E1 trimer; source: HEK293F, co-transfected with furin, purified (Strep-TactinXT, SEC); copies: 3 + 3

[5] = biological target: T7, UKNP5.2.1 E2E1-I53-50A trimer (Hepatitis C virus genotype 5, strain …, UniProt A0A0U3TV66, stabilised); test: ELISA; details: both partners purified
T7 construct: also called UKNP5.2.1 E2E1 trimer; source: HEK293F, co-transfected with furin, purified (Strep-TactinXT, SEC); copies: 3 + 3

[6] = biological target: T8, UKNP6.1.2 E2E1-I53-50A trimer (Hepatitis C virus genotype 6, strain …, UniProt A0A0U3SJ35, stabilised); test: ELISA; details: both partners purified
T8 construct: also called UKNP6.1.2 E2E1 trimer; source: HEK293F, co-transfected with furin, purified (Strep-TactinXT, SEC); copies: 3 + 3

[7] = biological target: T1, AMS2b E2E1-I53-50A trimer; test: ELISA; details: both partners purified
[8] = biological target: T2, AMS3a E2E1-I53-50A trimer; test: ELISA; details: both partners purified
[9] = biological target: T9, UKNP4.1.1 E2E1-I53-50A trimer (Hepatitis C virus genotype 4a, strain …, UniProt A0A0U3JDN1, stabilised); test: ELISA; details: both partners purified; remark: listed apart in the source
T9 construct: also called UKNP4.1.1 E2E1 trimer; source: HEK293F, co-transfected with furin, purified (Strep-TactinXT, SEC); copies: 3 + 3

[10] = biological target: T10, UKNP5.2.1 E2E1-I53-50A trimer (Hepatitis C virus genotype 5, strain …, UniProt A0A0U3TV66, stabilised); test: ELISA; details: both partners purified; remark: listed apart in the source
T10 construct: also called UKNP5.2.1 E2E1 trimer; source: HEK293F, co-transfected with furin, purified (Strep-TactinXT, SEC); copies: 3 + 3

[11] = biological target: T11, UKNP6.1.2 E2E1-I53-50A trimer (Hepatitis C virus genotype 6, strain …, UniProt A0A0U3SJ35, stabilised); test: ELISA; details: both partners purified; remark: listed apart in the source
T11 construct: also called UKNP6.1.2 E2E1 trimer; source: HEK293F, co-transfected with furin, purified (Strep-TactinXT, SEC); copies: 3 + 3

[12] = biological target: T7, UKNP5.2.1 E2E1-I53-50A trimer; test: cell-based or functional assay

Binder	binding result [1]	binding result [2]	binding result [3]	binding result [4]	binding result [5]	binding result [6]	binding result [7]	binding result [8]	binding result [9]	binding result [10]	binding result [11]	neutralisation of UKNP5.2.1 HCVpp, IC50 [12] [µg/mL]
AT1209 (antibody, V domains shown, also called mature AT1209; source: HEK293F, transfected, purified (protein A/G)) VH: QVLVQSGAEVKKPGSSVRVSCKASGDTFKTHAISWVRQAPGQGLEWVGGTVRQAPGDGLELLGGFVPILAPANDAQKFQGRVTITADGSTGPVYMDLSTLTSEDTAMYYCVTSLSEPIPRSCRGGRCYSGPFDAFGVWGQ VL: EIMLTQSPVTLSVSPGERATLSCRASQSIGTNLAWYQKPGQAPRLLIHGASTRATGVPVSFSGSGSGTEFTLTISSLQSEDFAVYYCQQYNNWPLTFGGGTKVEIK	binds	binds	binds	binds	binds	binds						
AR3D (antibody, V domains shown, also called mature AR3D; source: HEK293F, transfected, purified (protein A/G)) VH: LLEQSGAEVKKPGSSVKVSCKASGDTFRSYVITWARQAPGQGLEWMGAIIPFFGTTNLAQKFQGRVTITADESTKTVYMDLSSLRSDDTAVYYCAKAGDLSVGGVLAGGVPHLRHFDPWGQGTLVTVSS VL: ELTQSPGTLSLSPGERATLSCRAGQTVASNSLAWYQHKPGQAPRLLIYGASIRASGIPDRFSGSGSGTDFTLTISRLEPEDFAVYYCQQYGLSSTFGQGTRLEIK	binds						binds	binds	binds	binds	binds	
HEPC3 (antibody, V domains shown, also called mature HEPC3; source: HEK293F, transfected, purified (protein A/G)) VH: QVQLVQSGAEVKKPGSSVKVSCKASGGTLNSYEITWVRQAPGQGLEWMGGITPIFETTYAQKFQGRVTITADESTSTTYMELSSLRPEDTAVYYCARDGVRYCGGGRCYNWFDPWGQGTLVTVSS VL: DIQMTQSPSSLSASVGDRVTITCRAGQNINNYLNWYQQKPGKAPKVLIYAASNLQSGVPSRFSGSGSGTDFTLTISSLQPEDFATYYCQQSHSTVRTFGQGTKVEIK	binds	binds	binds	binds	binds	binds						
HEPC74 (antibody, V domains shown, also called mature HEPC74; conventional HEPC74; source: HEK293F, transfected, purified (protein A/G)) VH: QVQLVQSGAEVKKPGSSVKVSCTTSGGTYINYAISWVRQAPGQGLEWVGGMSPISNTPKYAQKFQGRVTITADESTSTTYMELSSLRPEDTAVYYCARDLLKYCGGGNCHSLLVDPWGQGTLVTVSS VL: DIVMTQSPSTLSASVGDRVTISCRASQSISSWLAWYQQKPGRAPKLLIYKASSLETGVPSRFSGSGSGTEFTLTISSLQPDDFATYYCQHYNTYLFTFGPGTKVDLK	binds	binds	binds									0.03
HEPC74 S54L (antibody, V domains shown, human IgG1; source: HEK293F, transfected, purified (protein A/G)) VH: QVQLVQSGAEVKKPGSSVKVSCTTSGGTYINYAISWVRQAPGQGLEWVGGMSPILNTPKYAQKFQGRVTITADESTSTTYMELSSLRPEDTAVYYCARDLLKYCGGGNCHSLLVDPWGQGTLVTVSS VL: DIVMTQSPSTLSASVGDRVTISCRASQSISSWLAWYQQKPGRAPKLLIYKASSLETGVPSRFSGSGSGTEFTLTISSLQPDDFATYYCQHYNTYLFTFGPGTKVDLK	binds	binds	binds	binds	binds	binds						
AR3C (antibody, V domains shown, also called mature AR3C; conventional AR3C; source: HEK293F, transfected, purified (protein A/G)) VH: VQLLEQSGAEVKKPGSSVKVSCETSGGTFDNYALNWVRQAPGQGLEWIGGVVPLFGTTRNAQKFQGRVTISDDKSTGTGHMELRSLRSEDTAVYYCVRSVTPRYCGGGFCYGEFDYWGQGTLVTVSS VL: EIELTQSPATLSVSPGERATLSCRASQSVSSNLAWYQQKPGQAPRLLIYGASTRATGIPARFSGSGSGTEFTLTVSRLEPEDSAVYFCQQYYRSPLTFGGGTKVEIK	binds	binds	binds	binds	binds	binds						
